This is an account of results in US20070218502A1 (Scripps Research, published 2007).

Ends that are not written are not given here.

The target of assay [1] is T1, human high affinity IgE receptor (FcεRI) α-chain with the NOVA-2 peptide tag at the C-terminus, expressed in … (human, UniProt P12319 26-257).
T1 construct: whole, on cells; Retained in the endoplasmic reticulum membrane of the cells; also called peptide-tagged FcεRI α-chain; NOVA2-tagged α-chain
T1 sequence: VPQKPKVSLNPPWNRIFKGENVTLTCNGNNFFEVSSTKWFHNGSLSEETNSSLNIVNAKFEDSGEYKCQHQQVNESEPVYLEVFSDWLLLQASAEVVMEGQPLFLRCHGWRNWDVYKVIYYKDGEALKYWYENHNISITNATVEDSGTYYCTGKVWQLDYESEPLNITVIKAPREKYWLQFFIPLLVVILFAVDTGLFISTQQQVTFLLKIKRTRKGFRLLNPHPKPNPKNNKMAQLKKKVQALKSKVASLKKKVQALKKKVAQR
Description: fluorescence imaging in live Cos-7 cells after microinjection.

The target of assay [2] is T2, peptide tag (SEQ ID NO:16), unlabeled synthetic peptide (C-terminal amide).
T2 construct: Short peptide tag derived from the leucine zipper of the GCN4 transcription factor; also called protein tag peptide; unlabeled peptide
T2 peptide: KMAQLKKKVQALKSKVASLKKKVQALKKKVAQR
Description: equilibrium fluorescence anisotropy titration, 12.52 nM labeled peptide, 0.1x PBS, 25° C., 1:1 binding fit. Background: Polarisation of emitted light reports the rotation of a fluorescent probe.

Assay [3] deals with T2, peptide tag (SEQ ID NO:16), unlabeled …. The assay is described as follows: equilibrium fluorescence titration.
For assay [4], the target named is T3, cdc42-GTPγS (recombinant 6His-tagged cdc42 loaded with GTPγS) (UniProt P60953 1-191, limits assumed).
T3 construct: not shown: 6His tag
Description: fluorescence of mero-CBD with saturating cdc42-GTPγS.

In assay [5] the target is T4, RhoA-GTPγS (recombinant 6His-tagged RhoA pre-equilibrated with GTPγS) (UniProt P61586 1-193, limits assumed).
T4 construct: not shown: 6His tag
Description: fluorescence of mero-CBD in solution.

Assay [6] has as its target T3, cdc42-GTPγS (recombinant 6His-tagged …). Description: fluorescence of dye-labeled CBD in solution.

T3 sequence (P60953 whole entry): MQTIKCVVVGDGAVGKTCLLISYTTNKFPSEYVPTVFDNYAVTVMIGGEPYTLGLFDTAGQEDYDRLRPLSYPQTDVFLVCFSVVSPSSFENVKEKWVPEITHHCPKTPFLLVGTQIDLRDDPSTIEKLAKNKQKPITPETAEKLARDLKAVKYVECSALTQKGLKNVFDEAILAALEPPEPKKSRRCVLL
T4 sequence (P61586 whole entry): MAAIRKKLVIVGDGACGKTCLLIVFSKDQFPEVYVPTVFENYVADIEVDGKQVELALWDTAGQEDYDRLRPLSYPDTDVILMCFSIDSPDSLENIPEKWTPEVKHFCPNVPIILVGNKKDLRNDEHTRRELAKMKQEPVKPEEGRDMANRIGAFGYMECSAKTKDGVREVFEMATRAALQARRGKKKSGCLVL

B1: rhodamine-labeled peptide (SEQ ID NO:15, tetramethylrhodamine on Lys 21), as microinjected into cells (peptide)
peptide: CEMAQLEKEVQALESEVASLEKEVQALEKEVAQR-NH2
modifications: also: tetramethylrhodamine on Lys stated as position 21, which does not match a Lys in the given chain
notes: also called rhodamine peptide biosensor; rhodamine-peptide
With B1, the binding result in assay [1] is recorded as “binds”.

B2: tetramethylrhodamine-labeled leucine zipper peptide (SEQ ID NO:15) with YGRKKRRNRRRP (SEQ ID NO:17) appended to the N-terminus, as used in the in vitro … (peptide)
peptide: YGRKKRRNRRRPCEMAQLEKEVQALESEVASLEKEVQALEKEVAQR-NH2
modifications: not fully specified
notes: Peptide derived from the GCN4 leucine zipper; also called labeled peptide; TMRPep
What is called Kd is the equilibrium constant for the complex coming apart. Turning to B2, the values for the Kd in assay [2] and in assay [3] were 5.4 nM and 5 nM, respectively.

B3: mero-CBD-F271C conjugate (Cdc42-binding fragment of human WASP, amino acids 201 to 321, F271C, labeled with merocyanine dye) (other)
chain: DIQNPDITSSRYRGLPAPGPSPADKKRSGKKKISKADIGAPSGFKHVSHVGWDPQNGFDVNNLDPDLRSLCSRAGISEAQLTDAETSKLIYDFIEDQGGLEAVRQEMRRQEPLPPPPPPSR
modifications: merocyanine dye of FIG. 11 on Cys 271 (WASP numbering)
notes: that entry has 120 residues and ends at WASP 320; also called CBD-A4C; CBD biosensor; not shown: C-terminal 6His tag from pET23a
On to B3, for which the “fold increase in excitation and emission maxima” value in assay [4] was approximately 3.5 fold. Besides, the binding result in assay [5] is “no binding”. In addition, in assay [6], the “fold fluorescence change on binding” value is approximately 3.5 fold.
